Laboratory results: IntAct's records for PubMed 18171471

Molecular target: fak1_chick PTK2 (UniProt Q00944)
Sequence (Q00944 whole entry): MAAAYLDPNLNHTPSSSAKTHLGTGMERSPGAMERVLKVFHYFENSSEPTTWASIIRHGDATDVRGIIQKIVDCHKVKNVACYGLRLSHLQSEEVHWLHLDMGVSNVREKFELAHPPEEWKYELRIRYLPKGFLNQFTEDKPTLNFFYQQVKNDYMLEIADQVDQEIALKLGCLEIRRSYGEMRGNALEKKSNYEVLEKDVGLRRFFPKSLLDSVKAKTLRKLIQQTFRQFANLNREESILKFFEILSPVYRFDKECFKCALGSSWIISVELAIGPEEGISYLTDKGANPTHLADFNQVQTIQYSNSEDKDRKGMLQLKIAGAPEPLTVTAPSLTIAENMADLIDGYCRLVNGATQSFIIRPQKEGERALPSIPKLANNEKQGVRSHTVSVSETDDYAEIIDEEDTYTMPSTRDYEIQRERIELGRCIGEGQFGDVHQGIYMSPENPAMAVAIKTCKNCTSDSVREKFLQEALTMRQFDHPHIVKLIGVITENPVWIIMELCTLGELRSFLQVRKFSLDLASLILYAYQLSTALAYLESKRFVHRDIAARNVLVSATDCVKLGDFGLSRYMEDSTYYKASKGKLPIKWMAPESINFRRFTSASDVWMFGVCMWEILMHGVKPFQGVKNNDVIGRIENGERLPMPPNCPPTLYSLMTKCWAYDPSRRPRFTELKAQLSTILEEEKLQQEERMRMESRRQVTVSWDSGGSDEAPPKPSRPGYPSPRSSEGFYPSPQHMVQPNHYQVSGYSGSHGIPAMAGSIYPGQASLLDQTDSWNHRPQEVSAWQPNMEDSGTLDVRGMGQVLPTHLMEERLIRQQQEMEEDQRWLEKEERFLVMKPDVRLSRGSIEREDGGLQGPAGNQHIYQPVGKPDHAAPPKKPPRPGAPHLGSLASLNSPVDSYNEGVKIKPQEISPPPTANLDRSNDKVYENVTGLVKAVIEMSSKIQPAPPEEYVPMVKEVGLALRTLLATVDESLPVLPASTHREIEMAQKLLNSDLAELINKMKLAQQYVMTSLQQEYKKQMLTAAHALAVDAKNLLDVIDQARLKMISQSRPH

Sequence of Paxillin (Gallus gallus (Chicken)), P49024 D146A;D268A (P49024 whole entry D146A/D268A): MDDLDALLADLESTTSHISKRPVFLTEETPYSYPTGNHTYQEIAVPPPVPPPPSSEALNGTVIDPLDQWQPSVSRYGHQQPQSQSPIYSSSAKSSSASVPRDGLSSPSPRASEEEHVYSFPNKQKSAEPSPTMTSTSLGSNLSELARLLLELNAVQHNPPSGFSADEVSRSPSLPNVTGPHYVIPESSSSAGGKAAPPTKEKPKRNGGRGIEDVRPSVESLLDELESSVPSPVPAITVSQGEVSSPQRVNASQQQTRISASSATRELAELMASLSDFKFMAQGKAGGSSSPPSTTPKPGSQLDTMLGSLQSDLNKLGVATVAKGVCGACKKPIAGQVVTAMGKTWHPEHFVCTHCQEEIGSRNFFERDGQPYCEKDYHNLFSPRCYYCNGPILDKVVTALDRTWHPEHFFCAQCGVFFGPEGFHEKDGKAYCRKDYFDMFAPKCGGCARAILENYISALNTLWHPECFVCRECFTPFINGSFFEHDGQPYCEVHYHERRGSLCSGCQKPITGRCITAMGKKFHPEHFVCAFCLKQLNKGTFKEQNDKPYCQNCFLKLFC
Sequence of Paxillin (Gallus gallus (Chicken)), P49024 D146A (P49024 whole entry D146A): as the sequence (P49024 whole entry D146A/D268A) above, with A268D counted along it

effect of a mutation on the interaction | Substance
disrupting interaction | Paxillin (Gallus gallus (Chicken)), P49024 D146A;D268A
decreasing interaction | Paxillin (Gallus gallus (Chicken)), P49024 D146A
